Reference: patent US20080032921A1

Assays:
[1] = target: purified HLA-DR DRB1*0101 (human); test: competition with 125I-labelled reference peptide, purified HLA
[2] = target: purified HLA-DR DRB1*0301 (human); test: as above
[3] = target: purified HLA-DR DRB1*0405 (human); test: as above
[4] = target: purified HLA-DR DRB1*1302 (human); test: as above
[5] = target: purified HLA-DR DRB1*0404 (human); test: as above
[6] = target: purified HLA-DR DRB1*0401 (human); test: as above
[7] = target: HLA-DR DRB4*0101 (human); test: competition vs 125I-labeled peptide, purified HLA
[8] = target: HLA-DR DRB1*0401 (human); test: competition vs 125I-labeled peptide, purified HLA
[9] = target: HLA-DR DRB1*1302 (human); test: competition vs 125I-labeled peptide, purified HLA
[10] = target: HLA-DR DRB1*0101 (human); test: competition vs 125I-labeled peptide, purified HLA
[11] = target: HLA-DR DRB1*1501 (human); test: competition vs 125I-labeled peptide, purified HLA
[12] = target: HLA-DR DRB4*0101 (human); test: competition with 125I-labelled reference peptide on purified HLA-DR
[13] = target: HLA-DR DRB1*0401 (human); test: as above
[14] = target: HLA-DR DRB1*1302 (human); test: as above
[15] = target: HLA-DR DRB1*0101 (human); test: as above
[16] = target: HLA-DR DRB1*1501 (human); test: as above
[17] = target: HLA-DR DRB1*0301 (human); test: competition vs 125I-labeled peptide, purified HLA
[18] = target: HLA-DR DRB1*0401 (human); test: competition with 125I-labeled reference peptide, purified HLA
[19] = target: HLA-DR DRB1*1302 (human); test: as above
[20] = target: HLA-DR DRB1*0101 (human); test: as above
[21] = target: HLA-DR DRB1*0405 (human); test: as above
[22] = target: HLA-DR DRB1*0404 (human); test: as above
[23] = target: HLA-DR DRB1*0301 (human); test: as above
[24] = target: purified HLA-DR molecule DRB1*1302 (human); test: competition with 125I-labelled peptide for purified HLA
[25] = target: purified HLA-DR molecule DRB1*0101 (human); test: as above
[26] = target: purified HLA-DR molecule DRB1*0301 (human); test: as above
[27] = target: purified HLA-DR molecule DRB1*0405 (human); test: as above
[28] = target: purified HLA-DR molecule DRB1*0404 (human); test: as above
[29] = target: purified HLA-DR molecule DRB1*0401 (human); test: as above

RVVVSIDRFLRVRDQ (modifications not checked) [Flu.PB2.496]
IC50 [1]: 1860 nM
IC50 [2]: 67 nM
IC50 [3]: 2050 nM
IC50 [4]: 8.1 nM
IC50 [5]: 400 nM
IC50 [6]: 111 nM

VSKMGVDEYSSTERV (modifications not checked) [Flu.PB2.483]
IC50 [2]: 1020 nM
IC50 [4]: 1850 nM

MEWLKTRPILSPLTK (modifications not checked) [Flu.M1.46]
IC50 [7]: 7940 nM
IC50 [8]: 528 nM
IC50 [9]: 3880 nM
IC50 [10]: 52 nM
IC50 [11]: 111 nM

NGTVKDRSPHRTLMS (modifications not checked) [Flu.NA.126 peptide …]
IC50 [12]: 8880 nM
IC50 [13]: 17900 nM
IC50 [14]: 7930 nM
IC50 [15]: 581 nM
IC50 [16]: 267 nM

LLVLMENERTLDFHD (modifications not checked) [Flu.HA.444]
IC50 [17]: 64 nM

IGNMISIWVSHSIHTG (modifications not checked) [Flu.NA.26 peptide …]
IC50 [12]: 817 nM
IC50 [13]: 925 nM
IC50 [14]: 5950 nM
IC50 [15]: 1050 nM
IC50 [16]: 81 nM

ALQLLFEVEQEIRTF (modifications not checked) [Flu.NS2.178]
IC50 [18]: 10300 nM
IC50 [19]: > 10000 nM
IC50 [20]: 3490 nM
IC50 [21]: 8870 nM
IC50 [22]: 2150 nM
IC50 [23]: 403 nM

QRGILEDEQMYQKCC (modifications not checked) [… (Flu.PB1.682)]
IC50 [24]: 10900 nM
IC50 [25]: 433 nM
IC50 [26]: 34 nM
IC50 [27]: 700 nM
IC50 [28]: 3270 nM
IC50 [29]: 2560 nM

VAVLKYNGIITDTIKSW (modifications not checked) [Flu.NA.183 peptide …]
IC50 [12]: 289 nM
IC50 [13]: 319 nM
IC50 [14]: 169 nM
IC50 [15]: 3390 nM
IC50 [16]: 19 nM

MVAYMLERELVRKTR (modifications not checked) [… (Flu.PB2.205)]
IC50 [24]: 2080 nM
IC50 [25]: 97 nM
IC50 [26]: 878 nM
IC50 [27]: 5540 nM
IC50 [28]: 499 nM
IC50 [29]: 166 nM

GGEVRNDDVDQSLII (modifications not checked) [… (Flu.PB2.250)]
IC50 [24]: 2500 nM
IC50 [26]: 347 nM
IC50 [28]: 458 nM
IC50 [29]: 2160 nM

PTTYISVGTSTLNQRL (modifications not checked) [Flu.HA.210]
IC50 [7]: 522 nM
IC50 [8]: 59 nM
IC50 [9]: 957 nM
IC50 [10]: 190 nM
IC50 [11]: 1720 nM

RTFFLTQGALLNDKHS (modifications not checked) [Flu.NA.110 peptide …]
IC50 [12]: 2320 nM
IC50 [13]: 251 nM
IC50 [14]: 3200 nM
IC50 [15]: 16 nM
IC50 [16]: 790 nM

SIWIELDEIGEDVAP (modifications not checked) [Flu.PA.423]
IC50 [18]: 5400 nM
IC50 [19]: > 10000 nM
IC50 [20]: 13400 nM
IC50 [21]: > 10000 nM
IC50 [23]: 59 nM

TRPILSPLTKGILGF (modifications not checked) [Flu.M1.51]
IC50 [7]: 192 nM
IC50 [9]: 292 nM
IC50 [10]: 423 nM
IC50 [11]: 140 nM
